Drawing on ChEMBL document CHEMBL3091431, “Aminopyridyl/Pyrazinyl Spiro[indoline-3,4'-piperidine]-2-ones As Highly Selective and Efficacious c-Met/ALK Inhibitors” (ACS Med Chem Lett, 2013), this text covers Km for one protein.

Compound in this series: Nc1ncnc2c1ncn2[C@@H]1O[C@H](COP(=O)(O)OP(=O)(O)OP(=O)(O)O)[C@@H](O)[C@H]1O
The series is described as follows: Inhibition of human ALK (unknown origin) using poly[Glu:Tyr] as substrate by nanoliter kinase assay.

B1: ALK tyrosine kinase receptor (Homo sapiens), Q9UM73 (protein)
chain: MGAIGLLWLLPLLLSTAAVGSGMGTGQRAGSPAAGPPLQPREPLSYSRLQRKSLAVDFVVPSLFRVYARDLLLPPSSSELKAGRPEARGSLALDCAPLLRLLGPAPGVSWTAGSPAPAEARTLSRVLKGGSVRKLRRAKQLVLELGEEAILEGCVGPPGEAAVGLLQFNLSELFSWWIRQGEGRLRIRLMPEKKASEVGREGRLSAAIRASQPRLLFQIFGTGHSSLESPTNMPSPSPDYFTWNLTWIMKDSFPFLSHRSRYGLECSFDFPCELEYSPPLHDLRNQSWSWRRIPSEEASQMDLLDGPGAERSKEMPRGSFLLLNTSADSKHTILSPWMRSSSEHCTLAVSVHRHLQPSGRYIAQLLPHNEAAREILLMPTPGKHGWTVLQGRIGRPDNPFRVALEYISSGNRSLSAVDFFALKNCSEGTSPGSKMALQSSFTCWNGTVLQLGQACDFHQDCAQGEDESQMCRKLPVGFYCNFEDGFCGWTQGTLSPHTPQWQVRTLKDARFQDHQDHALLLSTTDVPASESATVTSATFPAPIKSSPCELRMSWLIRGVLRGNVSLVLVENKTGKEQGRMVWHVAAYEGLSLWQWMVLPLLDVSDRFWLQMVAWWGQGSRAIVAFDNISISLDCYLTISGEDKILQNTAPKSRNLFERNPNKELKPGENSPRQTPIFDPTVHWLFTTCGASGPHGPTQAQCNNAYQNSNLSVEVGSEGPLKGIQIWKVPATDTYSISGYGAAGGKGGKNTMMRSHGVSVLGIFNLEKDDMLYILVGQQGEDACPSTNQLIQKVCIGENNVIEEEIRVNRSVHEWAGGGGGGGGATYVFKMKDGVPVPLIIAAGGGGRAYGAKTDTFHPERLENNSSVLGLNGNSGAAGGGGGWNDNTSLLWAGKSLQEGATGGHSCPQAMKKWGWETRGGFGGGGGGCSSGGGGGGYIGGNAASNNDPEMDGEDGVSFISPLGILYTPALKVMEGHGEVNIKHYLNCSHCEVDECHMDPESHKVICFCDHGTVLAEDGVSCIVSPTPEPHLPLSLILSVVTSALVAALVLAFSGIMIVYRRKHQELQAMQMELQSPEYKLSKLRTSTIMTDYNPNYCFAGKTSSISDLKEVPRKNITLIRGLGHGAFGEVYEGQVSGMPNDPSPLQVAVKTLPEVCSEQDELDFLMEALIISKFNHQNIVRCIGVSLQSLPRFILLELMAGGDLKSFLRETRPRPSQPSSLAMLDLLHVARDIACGCQYLEENHFIHRDIAARNCLLTCPGPGRVAKIGDFGMARDIYRASYYRKGGCAMLPVKWMPPEAFMEGIFTSKTDTWSFGVLLWEIFSLGYMPYPSKSNQEVLEFVTSGGRMDPPKNCPGPVYRIMTQCWQHQPEDRPNFAIILERIEYCTQDPDVINTALPIEYGPLVEEEEKVPVRPKDPEGVPPLLVSQQAKREEERSPAAPPPLPTTSSGKAAKKPTAAEISVRVPRGPAVEGGHVNMAFSQSNPPSELHKVHGSRNKPTSLWNPTYGSWFTEKPTKKNNPIAKKEPHDRGNLGLEGSCTVPPNVATGRLPGASLLLEPSSLTANMKEVPLFRLRHFPCGNVNYGYQQQGLPLEAATAPGAGHYEDTILKSKNSMNQPGP
Broadly, the Km is the concentration of substrate that gives half-maximal velocity. As to B1, the Km is 50 µM.
